Values belong to the molecule of their own block, whether it stands above or below them.
Tests used:
[1] = test system: KIDS cPLA2 mRNA in hippocampal dentate gyrus; experiment: In situ hybridization of brain slices after kainic acid stimulation; type: in vivo, Wister rat; settings: rat brain, riboprobe C, with or without kainic acid stimulation
Experimental: Brain of Wister rat of 3 weeks age stimulated by kainic acid was fixed by 4% paraformaldehyde and then a frozen slice was prepared. Each of the radio-labeled riboprobes B, C and D was subjected to a hybridization reaction with the frozen slice and the labeled image of the slice from each probe was confirmed to be same. Then, frozen slice of the brain was prepared again using riboprobe C with or without a kainic acid stimulation and an expression pattern of KIDS cPLA2 mRNA was investigated.

nerve stem cells = experiment: Expression of KIDS cPLA2 in nerve stem cells after stimulation; type: cell-based; settings: kainic acid 10 μM, probe P19-P27, FIG. 14
Experimental: Then expression of KIDS cPLA 2 of the present invention using nerve stem cells by means of stimulation by kainic acid (10 μM), by kainic acid and CNQX (10 μM KA and 20 μM CNQX) and by glutamic acid (50 μM) was investigated.
The result is shown in FIG. 14 which is a picture as a substitute for a drawing. In FIG. 14, the probe used is P90-P27 of 252 bp (the said sequence is a sequence of a moiety which is common in the full-length cPLA2) in the upper column, P19-P27 of 290 bp (the said sequence contains a sequence specific to KIDS cPLA2 of the present invention) in the second column and G3 PDH and nestin in the lower two columns as controls.
The lanes in FIG. 14 are control and stimulations by kainic acid (KA (10 μM)), by kainic acid and CNQX (KA (10 μM)+CNQX (20 μM)) and by glutamic acid (Glu (50 μM)) from the left side.

[2] = test system: KIDS cPLA2 protein in hippocampal dentate gyrus; experiment: Immunohistochemical dyeing of brain slices after kainic acid stimulation; type: in vivo, cPLA2a knockout mouse, C57/Black 6J mouse, Wister rat; settings: anti-KIDS cPLA2 stump antibody
Experimental: Brains of cPLA2a knockout mouse and C57/Black 6J mouse of 6-10 weeks age and Wister rat of 3 weeks age stimulated by kainic acid were fixed with 4% paraformaldehyde and then frozen slices were prepared. Immunoreaction of an anti-KIDS cPLA2-specific stump antibody with the brain slice was carried out overnight at 4° C. and expression of KIDS cPLA2 protein was confirmed by a secondary antibody labeled with gold colloid.

[3] = Calcium dependency of enzymatic activity (EDTA-Ca); type: biochemical; settings: substrate 1-Pam-2-[^14C]arachidonoyl-PC
Description: Then, calcium dependency of cPLA2α and KIDS cPLA2 of the present invention on enzymatic activity was investigated using 1-Pam-2-[^14C]arachidonoyl-PC as a substrate. EDTA-Ca was used as a calcium source.
The solid lines in FIG. 8 are the case of KIDS cPLA of the present invention while the broken lines therein are the case of cPLA2α. In each of them, the black dots (●) are the data in the absence of EDTA-Ca while the open circles (◯) are those in the presence of EDTA-Ca.
It is noted that, in the case of KIDS cPLA2 of the present invention, an activity of around 40% is maintained even […] while, in the case of cPLA2α, the activity is reduced to an extent of around 10-15% […].

[4] = Enzymatic (phospholipase A2) activity of KIDS cPLA2 and cPLA2α on radiolabelled PC substrates; type: biochemical; settings: difference from the control
Description: Then enzymatic activity of cPLA2α and KIDS cPLA2 of the present invention were investigated. There were used 1-Pam-2-[^14C] arachidonoyl-PC (black dots (●) in FIG. 7), 1-Pam-2-[^14C]Iinoleoyl-PC (black triangles (▴) in FIG. 7), 1-Pam-2-[^14C]oleoyl-PC (black squares (▪) in FIG. 7) and 1-Pam-2-[^14C]palmitoyl-PC (asterisks (*) in FIG. 7) as the substrates for testing the enzymatic activity of each of them. In FIG. 7, the left side is that for KIDS cPLA2 of the present invention while the right side is that for cPLA2α.
Incidentally, the phospholipase A2 activity is given in terms of the difference from the control.

Molecule: C=C(C)[C@H]1CN[C@H](C(=O)O)[C@H]1CC(=O)O [kainic acid]
Expression pattern of KIDS cPLA2 mRNA [1]: drastically induced in the hippocampal dentate gyrus
Expression of KIDS cPLA2 (nerve stem cells): specific expression of KIDS cPLA2 of the present invention was confirmed
Expression of KIDS cPLA2 protein [2]: drastically induced in the hippocampal dentate gyrus

Phospholipase A2 Activity ([4]; substrate 1-Pam-2-[^14C]arachidonoyl-PC): 24.4 ± 1.4 pmol/min
Phospholipase A2 Activity ([4]; substrate 1-Pam-2-[^14C]linoleoyl-PC): 11.9 ± 1.8 pmol/min
Phospholipase A2 Activity ([4]; substrate 1-Pam-2-[^14C]oleoyl-PC): 9.1 ± 1.1 pmol/min
Phospholipase A2 Activity ([4]; substrate 1-Pam-2-[^14C]palmitoyl-PC): 9.8 ± 1.7 pmol/min
B1: cPLA2α: cytosolic phospholipase A2 (cPLA2α) of 85 kDa, the conventional full-length enzyme (protein, UniProt P47712 1-749, looked up)
chain: MSFIDPYQHIIVEHQYSHKFTVVVLRATKVTKGAFGDMLDTPDPYVELFISTTPDSRKRTRHFNNDINPVWNETFEFILDPNQENVLEITLMDANYVMDETLGTATFTVSSMKVGEKKEVPFIFNQVTEMVLEMSLEVCSCPDLRFSMALCDQEKTFRQQRKEHIRESMKKLLGPKNSEGLHSARDVPVVAILGSGGGFRAMVGFSGVMKALYESGILDCATYVAGLSGSTWYMSTLYSHPDFPEKGPEEINEELMKNVSHNPLLLLTPQKVKRYVESLWKKKSSGQPVTFTDIFGMLIGETLIHNRMNTTLSSLKEKVNTAQCPLPLFTCLHVKPDVSELMFADWVEFSPYEIGMAKYGTFMAPDLFGSKFFMGTVVKKYEENPLHFLMGVWGSAFSILFNRVLGVSGSQSRGSTMEEELENITTKHIVSNDSSDSDDESHEPKGTENEDAGSDYQSDNQASWIHRMIMALVSDSALFNTREGRAGKVHNFMLGLNLNTSYPLSPLSDFATQDSFDDDELDAAVADPDEFERIYEPLDVKSKKIHVVDSGLTFNLPYPLILRPQRGVDLIISFDFSARPSDSSPPFKELLLAEKWAKMNKLPFPKIDPYVFDREGLKECYVFKPKNPDMEKDCPTIIHFVLANINFRKYRAPGVPRETEEEKEIADFDIFDDPESPFSTFNFQYPNQAFKRLHDLMHFNTLNNIDVIKEAMVESIEYRRQNPSRCSVSLSNVEARRFFNKEFLSKPKA
modifications: full-length
notes: cytosolic phospholipase A2 (cPLA2α) of 85 kDa, the conventional full-length enzyme
Activity maintained in the presence of calcium (relative ratio) ([3]; EDTA-Ca, FIG. 9): 10-15%
Change of enzymatic activity by the presence of calcium ([3]; with and without EDTA-Ca, FIG. 8): sudden reduction in the activity by the presence of calcium
